The text below walks through data of the supplement of paper PMC9112550, “Optimization of the antimicrobial peptide Bac7 by deep mutational scanning” (BMC Biology, 2022).
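Further: peptides expressed intracellularly from a pBAD plasmid library in pooled LB shake-flask culture, induced with 0.3% L-arabinose, DNA abundance read by NGS, three biological replicates, DESeq2 with apeglm shrinkage.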

For this data set, the system named is Escherichia coli TOP10. As to the kind of experiment: shrunken log2 fold change of peptide-encoding DNA abundance (4.5 h post-induction vs induction); higher = less antimicrobial activity (less host growth inhibition). To be noted: time post-induction: 4.5 h; library: site-saturation at positions 5, 18, 19, 20.
Turning to RRIRCRPPRLPRPRPRPLHPPRP, the “shrunken log2 fold change” value is 0.199.

For the sequence RRIRQRPPRLPRPRPRPEQQPRP, the “shrunken log2 fold change” value is -0.0316.

Turning to RRIRTRPPRLPRPRPRPYKVPRP, the “shrunken log2 fold change” value was -1.32.

With RRIRGRPPRLPRPRPRPEIMPRP, the “shrunken log2 fold change” value came to 1.33.

Take RRIRYRPPRLPRPRPRPTYEPRP: the “shrunken log2 fold change” value was 4.06.

For RRIRARPPRLPRPRPRPQEIPRP, the “shrunken log2 fold change” value is 0.107.

On to RRIRHRPPRLPRPRPRPRQKPRP, for which the “shrunken log2 fold change” value was -0.01.

On to RRIRERPPRLPRPRPRPNKMPRP, for which the “shrunken log2 fold change” value is -0.324.

RRIRGRPPRLPRPRPRPASSPRP: the “shrunken log2 fold change” value amounted to 0.653.

RRIRERPPRLPRPRPRPVLCPRP: the “shrunken log2 fold change” value came out at 0.0605.

Regarding RRIRDRPPRLPRPRPRPPQSPRP, the “shrunken log2 fold change” value was 0.613.

With RRIRIRPPRLPRPRPRPRMCPRP, the “shrunken log2 fold change” value turned out to be 0.242.

RRIRTRPPRLPRPRPRPVLIPRP: the “shrunken log2 fold change” value stood at 0.233.

For the sequence RRIRCRPPRLPRPRPRPSACPRP, the “shrunken log2 fold change” value was -0.0897.

Turning to RRIRHRPPRLPRPRPRPVSIPRP, the “shrunken log2 fold change” value is -0.00904.

For RRIRLRPPRLPRPRPRPENMPRP, the “shrunken log2 fold change” value is -0.4.

Take RRIRPRPPRLPRPRPRPHMVPRP: the “shrunken log2 fold change” value is -0.0201.

As for RRIRKRPPRLPRPRPRPIYFPRP, the “shrunken log2 fold change” value was determined as 0.216.

Turning to RRIRYRPPRLPRPRPRPWTDPRP, the “shrunken log2 fold change” value was -0.038.

Consider RRIRSRPPRLPRPRPRPMTEPRP, for which the “shrunken log2 fold change” value is 0.0273.

Turning to RRIRKRPPRLPRPRPRPVQAPRP, the “shrunken log2 fold change” value came to 0.741.

On to RRIRLRPPRLPRPRPRPSFEPRP, for which the “shrunken log2 fold change” value is 0.0552.

Consider RRIRMRPPRLPRPRPRPDEKPRP, for which the “shrunken log2 fold change” value was -0.0255.

For RRIRYRPPRLPRPRPRPDTTPRP, the “shrunken log2 fold change” value came to 0.0425.

On to RRIRFRPPRLPRPRPRPQSNPRP, for which the “shrunken log2 fold change” value was -0.354.

On to RRIRHRPPRLPRPRPRPDSPPRP, for which the “shrunken log2 fold change” value amounted to 0.0316.

Consider RRIRMRPPRLPRPRPRPMMGPRP, for which the “shrunken log2 fold change” value was 0.0255.

With RRIRYRPPRLPRPRPRPDQLPRP, the “shrunken log2 fold change” value is -0.122.

For the sequence RRIRERPPRLPRPRPRPRELPRP, the “shrunken log2 fold change” value worked out at 0.569.

Regarding RRIRPRPPRLPRPRPRPCNMPRP, the “shrunken log2 fold change” value worked out at 0.0288.

Take RRIRPRPPRLPRPRPRPQVPPRP: the “shrunken log2 fold change” value is 0.0319.

RRIRFRPPRLPRPRPRPNFIPRP: the “shrunken log2 fold change” value was -0.308.

Regarding RRIRPRPPRLPRPRPRPVNDPRP, the “shrunken log2 fold change” value was -0.106.

As to RRIRRRPPRLPRPRPRPNWEPRP, the “shrunken log2 fold change” value is -0.0176.

With RRIRTRPPRLPRPRPRPATPPRP, the “shrunken log2 fold change” value was 0.499.

On to RRIRERPPRLPRPRPRPTMAPRP, for which the “shrunken log2 fold change” value is 0.00526.

As to RRIRLRPPRLPRPRPRPCGMPRP, the “shrunken log2 fold change” value was -0.0649.

For RRIRYRPPRLPRPRPRPKATPRP, the “shrunken log2 fold change” value is -0.00674.

Take RRIRVRPPRLPRPRPRPFGAPRP: the “shrunken log2 fold change” value came to 0.258.

For the sequence RRIRWRPPRLPRPRPRPITAPRP, the “shrunken log2 fold change” value amounted to 0.0334.

For RRIRFRPPRLPRPRPRPSHCPRP, the “shrunken log2 fold change” value is -0.28.

For RRIRPRPPRLPRPRPRPCSKPRP, the “shrunken log2 fold change” value amounted to 0.0051.

RRIRGRPPRLPRPRPRPEQNPRP: the “shrunken log2 fold change” value was determined as 1.31.

Turning to RRIRPRPPRLPRPRPRPGQGPRP, the “shrunken log2 fold change” value worked out at 0.201.

Regarding RRIRLRPPRLPRPRPRPFCVPRP, the “shrunken log2 fold change” value is -0.265.

As to RRIRCRPPRLPRPRPRPDIQPRP, the “shrunken log2 fold change” value is -0.268.

As to RRIRFRPPRLPRPRPRPCTMPRP, the “shrunken log2 fold change” value was -0.462.

As to RRIRTRPPRLPRPRPRPHQEPRP, the “shrunken log2 fold change” value is -0.163.

With RRIRYRPPRLPRPRPRPWGCPRP, the “shrunken log2 fold change” value was -0.404.

Consider RRIRQRPPRLPRPRPRPALWPRP, for which the “shrunken log2 fold change” value worked out at 0.144.

On to RRIRQRPPRLPRPRPRPNQMPRP, for which the “shrunken log2 fold change” value was -0.0557.

Take RRIRTRPPRLPRPRPRPNVNPRP: the “shrunken log2 fold change” value was determined as 1.5.

For the sequence RRIRARPPRLPRPRPRPFQFPRP, the “shrunken log2 fold change” value was -0.158.

On to RRIRMRPPRLPRPRPRPGPHPRP, for which the “shrunken log2 fold change” value stood at 0.256.

For the sequence RRIRLRPPRLPRPRPRPEWDPRP, the “shrunken log2 fold change” value is 0.273.

As to RRIRNRPPRLPRPRPRPQTHPRP, the “shrunken log2 fold change” value is -0.217.

With RRIRSRPPRLPRPRPRPIMGPRP, the “shrunken log2 fold change” value is -0.0258.

For the sequence RRIRSRPPRLPRPRPRPSKPPRP, the “shrunken log2 fold change” value is -0.432.

With RRIRMRPPRLPRPRPRPRKKPRP, the “shrunken log2 fold change” value worked out at 1.43.

Take RRIRRRPPRLPRPRPRPWAGPRP: the “shrunken log2 fold change” value was found to be 0.0855.

Consider RRIRRRPPRLPRPRPRPLMMPRP, for which the “shrunken log2 fold change” value turned out to be 0.8.

Take RRIRKRPPRLPRPRPRPPACPRP: the “shrunken log2 fold change” value was 0.197.

Take RRIRQRPPRLPRPRPRPWACPRP: the “shrunken log2 fold change” value was -0.0783.

On to RRIRQRPPRLPRPRPRPWTSPRP, for which the “shrunken log2 fold change” value turned out to be 0.0602.

For RRIRERPPRLPRPRPRPVWRPRP, the “shrunken log2 fold change” value was 0.202.

For RRIRYRPPRLPRPRPRPYINPRP, the “shrunken log2 fold change” value is -1.69.

With RRIRWRPPRLPRPRPRPINCPRP, the “shrunken log2 fold change” value is -0.889.

With RRIRLRPPRLPRPRPRPPFLPRP, the “shrunken log2 fold change” value was determined as 0.105.

Regarding RRIRVRPPRLPRPRPRPKQHPRP, the “shrunken log2 fold change” value was -0.301.

On to RRIRCRPPRLPRPRPRPLWFPRP, for which the “shrunken log2 fold change” value was -0.315.

As for RRIRVRPPRLPRPRPRPCKVPRP, the “shrunken log2 fold change” value turned out to be 0.00272.

In the case of RRIRNRPPRLPRPRPRPNEAPRP, the “shrunken log2 fold change” value was -0.00931.

With RRIRMRPPRLPRPRPRPNQFPRP, the “shrunken log2 fold change” value is -0.0124.

Turning to RRIRSRPPRLPRPRPRPHHHPRP, the “shrunken log2 fold change” value is -0.736.

Regarding RRIRIRPPRLPRPRPRPSMCPRP, the “shrunken log2 fold change” value is -1.33.

For RRIRGRPPRLPRPRPRPTYIPRP, the “shrunken log2 fold change” value was 0.111.

Consider RRIRDRPPRLPRPRPRPGNAPRP, for which the “shrunken log2 fold change” value came out at 0.126.

Consider RRIRCRPPRLPRPRPRPKFNPRP, for which the “shrunken log2 fold change” value is -0.477.

On to RRIRIRPPRLPRPRPRPMNWPRP, for which the “shrunken log2 fold change” value is -0.135.

On to RRIRSRPPRLPRPRPRPSCWPRP, for which the “shrunken log2 fold change” value worked out at 0.306.

With RRIRFRPPRLPRPRPRPCCSPRP, the “shrunken log2 fold change” value was -0.139.

Take RRIRERPPRLPRPRPRPEVAPRP: the “shrunken log2 fold change” value was determined as 0.907.

Consider RRIRTRPPRLPRPRPRPLFAPRP, for which the “shrunken log2 fold change” value is 0.228.

Regarding RRIRTRPPRLPRPRPRPNFFPRP, the “shrunken log2 fold change” value worked out at 0.0096.

For RRIRWRPPRLPRPRPRPMCFPRP, the “shrunken log2 fold change” value is 0.0876.

On to RRIRTRPPRLPRPRPRPFFPPRP, for which the “shrunken log2 fold change” value was 0.191.

For the sequence RRIRWRPPRLPRPRPRPCIIPRP, the “shrunken log2 fold change” value is -0.222.

As to RRIRQRPPRLPRPRPRPHADPRP, the “shrunken log2 fold change” value was -0.43.

For RRIRIRPPRLPRPRPRPCVYPRP, the “shrunken log2 fold change” value is -0.227.

On to RRIRERPPRLPRPRPRPRCWPRP, for which the “shrunken log2 fold change” value is 0.014.

Take RRIRDRPPRLPRPRPRPEADPRP: the “shrunken log2 fold change” value turned out to be 1.93.

Take RRIRVRPPRLPRPRPRPMHGPRP: the “shrunken log2 fold change” value stood at 0.00623.

RRIRTRPPRLPRPRPRPWPRPRP: the “shrunken log2 fold change” value was 0.116.

In the case of RRIRKRPPRLPRPRPRPRMMPRP, the “shrunken log2 fold change” value worked out at 0.492.

As to RRIRSRPPRLPRPRPRPSWNPRP, the “shrunken log2 fold change” value is -0.342.

Regarding RRIRGRPPRLPRPRPRPIWRPRP, the “shrunken log2 fold change” value stood at 0.744.

Turning to RRIRHRPPRLPRPRPRPQKFPRP, the “shrunken log2 fold change” value was -0.0301.

On to RRIRKRPPRLPRPRPRPVCAPRP, for which the “shrunken log2 fold change” value was determined as 0.904.

In the case of RRIRSRPPRLPRPRPRPLPVPRP, the “shrunken log2 fold change” value came to 0.0687.

RRIRPRPPRLPRPRPRPNQHPRP: the “shrunken log2 fold change” value was -0.43.

With RRIRYRPPRLPRPRPRPFMFPRP, the “shrunken log2 fold change” value was -0.861.

Consider RRIRTRPPRLPRPRPRPKRLPRP, for which the “shrunken log2 fold change” value was 0.2.

RRIRMRPPRLPRPRPRPYSQPRP: the “shrunken log2 fold change” value is -0.0394.

On to RRIRYRPPRLPRPRPRPHRFPRP, for which the “shrunken log2 fold change” value turned out to be 0.0207.

For RRIRARPPRLPRPRPRPAHLPRP, the “shrunken log2 fold change” value came out at 0.271.

Regarding RRIRGRPPRLPRPRPRPMCEPRP, the “shrunken log2 fold change” value amounted to 2.46.

For RRIRERPPRLPRPRPRPDLVPRP, the “shrunken log2 fold change” value was -0.022.

For the sequence RRIRGRPPRLPRPRPRPEHWPRP, the “shrunken log2 fold change” value is 0.378.

As for RRIRRRPPRLPRPRPRPQAIPRP, the “shrunken log2 fold change” value was -0.0149.

Regarding RRIRVRPPRLPRPRPRPAYLPRP, the “shrunken log2 fold change” value came out at 0.0246.

In the case of RRIRWRPPRLPRPRPRPAKIPRP, the “shrunken log2 fold change” value came out at 0.132.

For the sequence RRIRRRPPRLPRPRPRPIIRPRP, the “shrunken log2 fold change” value came out at 0.0674.

RRIRDRPPRLPRPRPRPCKIPRP: the “shrunken log2 fold change” value was -0.0385.

As for RRIRSRPPRLPRPRPRPGAFPRP, the “shrunken log2 fold change” value stood at 0.0905.

As to RRIRWRPPRLPRPRPRPETWPRP, the “shrunken log2 fold change” value is 0.502.

RRIRYRPPRLPRPRPRPYPTPRP: the “shrunken log2 fold change” value was -0.282.

As to RRIRYRPPRLPRPRPRPHLLPRP, the “shrunken log2 fold change” value was -0.515.

On to RRIRCRPPRLPRPRPRPISLPRP, for which the “shrunken log2 fold change” value was -0.426.

As for RRIRLRPPRLPRPRPRPCIRPRP, the “shrunken log2 fold change” value was -0.265.

In the case of RRIRCRPPRLPRPRPRPESMPRP, the “shrunken log2 fold change” value stood at 0.114.

As to RRIRGRPPRLPRPRPRPPMQPRP, the “shrunken log2 fold change” value is 1.12.

Take RRIRHRPPRLPRPRPRPPMKPRP: the “shrunken log2 fold change” value was -0.278.

With RRIRGRPPRLPRPRPRPPYMPRP, the “shrunken log2 fold change” value was -0.0678.

As to RRIRPRPPRLPRPRPRPVIMPRP, the “shrunken log2 fold change” value is -0.634.

On to RRIRTRPPRLPRPRPRPHDIPRP, for which the “shrunken log2 fold change” value came to 2.43.
